Measurements as given in US20210070872A1 (AGENUS, published 2021).

T1: V1M/Q62P/S63G cynomolgus GITR on 1624-5 cells (cynomolgus monkey, UniProt Q9Y5U5 26-241 (human entry))
T1 construct: also called mutant cynomolgus GITR V1M/Q62P/S63G
T1 chain: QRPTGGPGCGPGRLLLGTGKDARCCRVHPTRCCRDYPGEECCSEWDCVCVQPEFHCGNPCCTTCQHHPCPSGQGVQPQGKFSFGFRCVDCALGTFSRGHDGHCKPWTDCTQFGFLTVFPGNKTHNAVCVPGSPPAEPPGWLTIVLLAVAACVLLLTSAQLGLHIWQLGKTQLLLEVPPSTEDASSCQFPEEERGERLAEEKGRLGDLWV

T2: GITR antigen (R&D systems, di-sulfide-linked homodimer; 689-GR) (human, UniProt Q9Y5U5 26-161)
T2 construct: Bought
T2 sequence: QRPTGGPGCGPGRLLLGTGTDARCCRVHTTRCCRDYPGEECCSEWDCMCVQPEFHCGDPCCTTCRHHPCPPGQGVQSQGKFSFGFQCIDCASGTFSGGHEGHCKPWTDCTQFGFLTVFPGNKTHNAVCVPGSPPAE

T3: human GITR D60A mutant on 1624-5 cells (human, UniProt Q9Y5U5 26-241)
T3 chain: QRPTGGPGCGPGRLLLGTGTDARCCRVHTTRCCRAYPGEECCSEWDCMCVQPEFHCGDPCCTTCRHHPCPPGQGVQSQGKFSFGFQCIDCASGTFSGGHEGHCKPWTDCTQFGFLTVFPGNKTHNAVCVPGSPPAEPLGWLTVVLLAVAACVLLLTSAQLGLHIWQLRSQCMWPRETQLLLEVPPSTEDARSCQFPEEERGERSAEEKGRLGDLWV

T4: human GITR G63A mutant on 1624-5 cells (human, UniProt Q9Y5U5 26-241)
T4 chain: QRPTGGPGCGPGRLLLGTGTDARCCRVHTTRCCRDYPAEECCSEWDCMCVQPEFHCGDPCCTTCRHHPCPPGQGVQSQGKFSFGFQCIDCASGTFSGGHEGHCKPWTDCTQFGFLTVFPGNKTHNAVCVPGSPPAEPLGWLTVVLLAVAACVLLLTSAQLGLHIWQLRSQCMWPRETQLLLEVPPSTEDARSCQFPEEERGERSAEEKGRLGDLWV

T5: V1M cynomolgus GITR on 1624-5 cells (cynomolgus monkey, UniProt Q9Y5U5 26-241 (human entry))
T5 chain: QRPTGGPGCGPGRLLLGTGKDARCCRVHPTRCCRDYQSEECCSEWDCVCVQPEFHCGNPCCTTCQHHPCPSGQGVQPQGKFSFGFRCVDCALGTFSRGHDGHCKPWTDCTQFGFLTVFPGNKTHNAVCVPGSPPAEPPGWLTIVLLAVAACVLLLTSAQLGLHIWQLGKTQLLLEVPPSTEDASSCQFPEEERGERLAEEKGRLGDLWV


What was measured:
[1] = target: T1, V1M/Q62P/S63G cynomolgus GITR on 1624-5 …; experiment: flow cytometry on 1624-5 cells, 2 µg/ml
[2] = target: T2, GITR antigen (R&D systems, …); experiment: SPR (BIAcore T100/T200), antibody captured via anti-human Fab, GITR antigen 40/10/2.5 nM, 1:1 model
Procedure: All interactions were analyzed at 25° C. using 1× DPBS (PAA, H15-002) plus P20 (0.05%, Pierce, 28320) as running buffer. Anti-GITR antibodies (8 μg/ml in running buffer) were captured to the chip surface of a CM5 sensor chip (GE Healthcare, Series S CM5, BR-1005-30) via an immobilized anti-human Fab antibody (GE Healthcare, Fab Capture Kit, 28958325). To detect unspecific interactions of the GITR antigen, antibody capture was only performed in flow cell 2, whereas in flow cell 1 only the capturing antibody was immobilized. In addition, an unrelated antibody (anti-IL-1β; SK48E26; International Publication No. WO 95/001997) was used to assess specificity of GITR binding. After capture of the anti-GITR antibodies GITR antigen (R&D systems, di-sulfide-linked homodimer; 689-GR) was run through both flow cells in different amounts (40 nM, 10 nM and 2.5 nM) for each antibody. Also a blank curve (running buffer only) was included in each run. Association was run for 90 s and dissociation for 600 s with a flow rate of 10 μl/min. After each run a regeneration step was performed with 10 mM Glycine pH2.0 (GE Healthcare, BR-1003-55) for 60 s with 30 μl/min. Binding curves were evaluated using BIAcore® T200 evaluation software version 2.0.1 applying a Langmuir 1:1 model with global fit of Rmax.

[3] = target: T3, human GITR D60A mutant on 1624-5 cells; experiment: flow cytometry on 1624-5 cells, 2 µg/ml, MFI ratio to polyclonal antibody
Procedure: (§1) An average MFI ratio (“AMFI ratio”) was calculated based on the individual MFI ratios for all the mutants. FIG. 34A is a table summarizing the binding of Hum231#2, three germline variants (pab1967, pab1975 and pab1979) and the reference antibody m6C8 to1624-5 cells expressing human GITR alanine mutants. An individual MFI ratio that is above 60% of the AMFI ratio is considered to indicate similar binding, after normalization, of that of the polyclonal antibody and is represented by “+” in FIG. 34A. An individual MFI ratio that is between 30% and 60% of the AMFI ratio is represented by “+/−” in FIG. 34A. An individual MFI ratio that is below 30% of the AMFI ratio is represented by “−” in FIG. 34A.
(§2) All the mean fluorescence intensity (MFI) values were calculated as the mean of two measurements. […] The percentage of binding of an antibody to the GITR alanine mutants relative to the wild type GITR was calculated by dividing a particular MFI ratio for the GITR alanine mutants by the corresponding MFI ratio for the wild type (e.g., dividing MFI ratio_{Hum231#2, D60A} by MFI ratio_{Hum231#2, WT}). The percentage of reduction in binding was determined by calculating, e.g., 100%*(1−(MFI ratio_{Hum231#2, D60A}/MFI ratio_{Hum231#2, WT})).

[4] = target: T4, human GITR G63A mutant on 1624-5 cells; experiment: as above
Procedure: as §1, §2

[5] = target: T5, V1M cynomolgus GITR on 1624-5 cells; experiment: flow cytometry on 1624-5 cells

binding result [1]	Kd [2]	koff [2]	kon [2]	percent reduction in binding relative to wild type human GITR [3]	percent reduction in binding relative to wild type human GITR [4]	binding result [5]	Binder
binds	2.02 nM	0.000712 s⁻¹	352000 M⁻¹ s⁻¹	82%	37%	no binding (tested: 2 µg/ml)	chimeric parental 231-32-15 antibody (antibody, human IgG1, V domains shown, Murine variable regions on human IgG1 (CH1-2-3) and human kappa constant regions; T109S (Kabat) in the light chain constant domain) VH: QVQLLQSGTELVRPGVSVKISCKGSGYTFTDYAMYWVKQSHAKSLEWIGVIRTYSGDVTYNQKFKDKATMTVDKSSSIAYMELARLSSEDSAIYYCAKSGTVRGFAYWGQGTLVTVSS VL: DIVMTQSPSSLTVTAGEKVIMSCKSSQSLLNSGNQKNYLTWYQQKPGQPPKLLIYWASTRESGVPDRFTGSGSGTDFTLTISSVQAEDLAVYHCQNDYSYPYTFGGGTKLEIK
binds	0.629 nM	0.00178 s⁻¹	2.83e+06 M⁻¹ s⁻¹	88%	59%	no binding (tested: 2 µg/ml)	Hum231#2 (antibody, human IgG1, V domains shown, Human IgG1 with T109S (Kabat) in the light chain constant domain; also called humanized variant Hum231#2 (IGHV1-2*02 and IGK4-1*01)) VH: QVQLVQSGAEVKKPGASVKVSCKGSGYTFTDYAMYWVRQAPGQGLEWIGVIRTYSGDVTYNQKFKDRATMTVDKSISTAYMELSRLRSDDTAVYYCAKSGTVRGFAYWGQGTLVTVSS VL: DIVMTQSPDSLAVSLGERATINCKSSQSLLNSGNQKNYLTWYQQKPGQPPKLLIYWASTRESGVPDRFSGSGSGTDFTLTISSLQAEDVAVYHCQNDYSYPYTFGQGTKLEIKR
